In this assay the target is Hepatitis B e antigen (HBeAg), purified (hepatitis B virus). The experiment in a line: SEC-MALS.

Data on 1 substance can be found in PMC6618080.

“Hepatitis B e antigen (HBeAg), purified (natural protein)” had a stoichiometry N of 2.
